From publication PMC11467436, “Novel mechanisms of MITF regulation identified in a mouse suppressor screen”

Legend:
Conditions in all cases: protein: recombinant; tags: none (His6-SUMO removed by ULP-1); unlabeled; chain copies: 2; label: Cy3B (5' positive strand); CF660R (5' negative strand); blunt
hMITF-sp [1] = target: T1, hMITF-sp (Homo sapiens, UniProt O75030-10 1-413); assay: smFRET; 300 mM KCl; Single-molecule: 0.5 nM DNA, 10 mM Tris pH 7.4, 0.1 mM EDTA, 165 or 300 mM KCl, 1 mM MgCl2, 143 mM 2-ME, 0.01% Tween-20, 0.1 mg/mL BSA. EMSA: 10 mM Hepes pH 7.9, 50 mM NaCl, 5 mM MgCl2, 0.1 mM EDTA, 2 mM DTT, 5% ethylene glycol, 5% glycerol, BSA, 30 min on ice
hMITF-WT [2] = target: T2, hMITF-WT (Homo sapiens, UniProt O75030-9 1-419); assay: as above
hMITF-sl [3] = target: T3, hMITF-sl (Homo sapiens, UniProt O75030-10 1-309); assay: as above
hMITF-sp [4] = target: T1, hMITF-sp; assay: single-molecule fluorescence anisotropy; 300 mM KCl; Single-molecule: 0.5 nM DNA, 10 mM Tris pH 7.4, 0.1 mM EDTA, 165 or 300 mM KCl, 1 mM MgCl2, 143 mM 2-ME, 0.01% Tween-20, 0.1 mg/mL BSA. EMSA: 10 mM Hepes pH 7.9, 50 mM NaCl, 5 mM MgCl2, 0.1 mM EDTA, 2 mM DTT, 5% ethylene glycol, 5% glycerol, BSA, 30 min on ice
hMITF-WT [5] = target: T2, hMITF-WT; assay: as above
hMITF-sl [6] = target: T3, hMITF-sl; assay: as above
hMITF-sp [7] = target: T1, hMITF-sp; assay: FCS; 300 mM KCl; Single-molecule: 0.5 nM DNA, 10 mM Tris pH 7.4, 0.1 mM EDTA, 165 or 300 mM KCl, 1 mM MgCl2, 143 mM 2-ME, 0.01% Tween-20, 0.1 mg/mL BSA. EMSA: 10 mM Hepes pH 7.9, 50 mM NaCl, 5 mM MgCl2, 0.1 mM EDTA, 2 mM DTT, 5% ethylene glycol, 5% glycerol, BSA, 30 min on ice
hMITF-WT [8] = target: T2, hMITF-WT; assay: as above
hMITF-sl [9] = target: T3, hMITF-sl; assay: as above

T3 sequence (O75030 other isoform, or with tags, fused parts or gaps): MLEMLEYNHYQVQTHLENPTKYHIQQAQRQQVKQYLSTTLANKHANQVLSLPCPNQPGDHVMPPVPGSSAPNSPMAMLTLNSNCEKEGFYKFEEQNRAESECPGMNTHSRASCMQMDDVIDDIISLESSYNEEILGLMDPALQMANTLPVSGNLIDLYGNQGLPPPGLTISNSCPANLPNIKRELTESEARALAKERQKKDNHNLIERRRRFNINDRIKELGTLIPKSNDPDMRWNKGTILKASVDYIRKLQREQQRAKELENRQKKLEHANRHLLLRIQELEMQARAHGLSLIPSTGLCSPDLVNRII
T1 sequence (O75030 other isoform, or with tags, fused parts or gaps): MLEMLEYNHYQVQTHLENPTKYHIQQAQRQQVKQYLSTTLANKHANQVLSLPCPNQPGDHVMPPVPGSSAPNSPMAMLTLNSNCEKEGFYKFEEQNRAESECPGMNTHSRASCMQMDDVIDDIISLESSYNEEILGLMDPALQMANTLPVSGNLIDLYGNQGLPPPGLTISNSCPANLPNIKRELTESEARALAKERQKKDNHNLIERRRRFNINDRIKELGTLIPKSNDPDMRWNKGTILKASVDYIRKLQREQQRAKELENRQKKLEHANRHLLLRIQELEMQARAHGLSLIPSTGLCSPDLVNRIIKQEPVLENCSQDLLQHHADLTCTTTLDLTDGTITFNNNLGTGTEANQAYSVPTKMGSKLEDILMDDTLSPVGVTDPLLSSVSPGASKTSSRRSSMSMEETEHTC
T2 sequence (O75030 other isoform, or with tags, fused parts or gaps): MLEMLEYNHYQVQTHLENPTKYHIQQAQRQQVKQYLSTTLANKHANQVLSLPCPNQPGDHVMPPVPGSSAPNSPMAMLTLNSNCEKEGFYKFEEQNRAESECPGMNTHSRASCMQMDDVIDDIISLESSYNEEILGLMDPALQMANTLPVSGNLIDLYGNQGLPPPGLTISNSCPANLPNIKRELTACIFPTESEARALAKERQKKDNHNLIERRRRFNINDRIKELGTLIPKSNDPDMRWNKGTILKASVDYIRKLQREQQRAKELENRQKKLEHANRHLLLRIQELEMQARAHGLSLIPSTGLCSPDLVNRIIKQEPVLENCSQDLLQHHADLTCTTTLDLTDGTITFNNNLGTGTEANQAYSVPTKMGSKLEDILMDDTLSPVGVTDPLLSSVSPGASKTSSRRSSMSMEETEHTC

B1: M-box smFRET probe (dsDNA)
DNA 1: GAGATCATGTGTTGA
DNA 2: TCAACACATGATCTC
modifications: 5' C6-amino linker on both strands
Kd (hMITF-sp [1]): 1.7 ± 0.9 nM | Kd (hMITF-WT [2]): 1.6 ± 1.4 nM | Kd (hMITF-sl [3]): 1.6 ± 0.5 nM | Kd (hMITF-sp [4]): 1 ± 0.4 nM | Kd (hMITF-WT [5]): 1.9 ± 0.6 nM | Kd (hMITF-sl [6]): 0.9 ± 0.4 nM | Kd (hMITF-sp [7]): 5.8 ± 3.5 nM | Kd (hMITF-WT [8]): 4.5 ± 1.4 nM | Kd (hMITF-sl [9]): 3.1 ± 1.6 nM
